B1: G1/S-specific cyclin-D3 (Homo sapiens), P30281 (parent)
chain: MELLCCEGTRHAPRAGPDPRLLGDQRVLQSLLRLEERYVPRASYFQCVQREIKPHMRKMLAYWMLEVCEEQRCEEEVFPLAMNYLDRYLSCVPTRKAQLQLLGAVCMLLASKLRETTPLTIEKLCIYTDHAVSPRQLRDWEVLVLGKLKWDLAAVIAHDFLAFILHRLSLPRDRQALVKKHAQTFLALCATDYTFAMYPPSMIATGSIGAAVQGLGACSMSGDELTELLAGITGTEVDCLRACQEQIEAALRESLREASQTSSSPAPKAPRGSSSQGPSQTSTPTDVTAIHL
B2: Progranulin (Homo sapiens), P28799 (parent)
chain: MWTLVSWVALTAGLVAGTRCPDGQFCPVACCLDPGGASYSCCRPLLDKWPTTLSRHLGGPCQVDAHCSAGHSCIFTVSGTSSCCPFPEAVACGDGHHCCPRGFHCSADGRSCFQRSGNNSVGAIQCPDSQFECPDFSTCCVMVDGSWGCCPMPQASCCEDRVHCCPHGAFCDLVHTRCITPTGTHPLAKKLPAQRTNRAVALSSSVMCPDARSRCPDGSTCCELPSGKYGCCPMPNATCCSDHLHCCPQDTVCDLIQSKCLSKENATTDLLTKLPAHTVGDVKCDMEVSCPDGYTCCRLQSGAWGCCPFTQAVCCEDHIHCCPAGFTCDTQKGTCEQGPHQVPWMEKAPAHLSLPDPQALKRDVPCDNVSSCPSSDTCCQLTSGEWGCCPIPEAVCCSDHQHCCPQGYTCVAEGQCQRGSEIVAGLEKMPARRASLSHPRDIGCDQHTSCPVGQTCCPSLGGSWACCQLPHAVCCEDRQHCCPAGYTCNVKARSCEKEVVSAQPATFLARSPHVGVKDVECGEGHFCHDNQTCCRDNRQGWACCPYRQGVCCADRRHCCPAGFRCAARGTKCLRREAPRWDAPLRDPALRQLL

Variants of: B1
Settings: with cdk4_human CDK4, P11802

effect of a mutation on the interaction	Variant
with no effect	MELLCCEGTRHAPRAGPDPRLLGDQRVLQSLLRLEERYVPRASYFQCVQREIKPHMRKMLAYWMLEVCEEQRCEEEVFPLAMNYLDRYLSCVPTRKAQLQLLGAVCMLLASKLRETTPLTIEKLCIYTDHAVSSRQLRDWEVLVLGKLKWDLAAVIAHDFLAFILHRLSLPRDRQALVKKHAQTFLALCATDYTFAMYPPSMIATGSIGAAVQGLGACSMSGDELTELLAGITGTEVDCLRACQEQIEAALRESLREASQTSSSPAPKAPRGSSSQGPSQTSTPTDVTAIHL [P134S]

Variants of: B1
Settings: with cdk6_human CDK6, Q00534
Chain of cdk6_human CDK6, Q00534 (Q00534 whole entry): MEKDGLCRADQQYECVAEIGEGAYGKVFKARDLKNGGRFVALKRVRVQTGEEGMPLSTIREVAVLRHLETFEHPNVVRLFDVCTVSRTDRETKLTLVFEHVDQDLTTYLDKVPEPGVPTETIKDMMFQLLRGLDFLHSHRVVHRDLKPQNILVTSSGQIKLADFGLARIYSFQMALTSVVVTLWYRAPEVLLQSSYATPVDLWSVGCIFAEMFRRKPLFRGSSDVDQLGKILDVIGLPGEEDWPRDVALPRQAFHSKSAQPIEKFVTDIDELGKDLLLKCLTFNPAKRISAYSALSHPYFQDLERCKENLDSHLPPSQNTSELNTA

effect of a mutation on the interaction	Variant
with no effect	MELLCCEGTRHAPRAGPDPRLLGDQRVLQSLLRLEERYVPRASYFQCVQREIKPHMRKMLAYWMLEVCEEQRCEEEVFPLAMNYLDRYLSCVPTRKAQLQLLGAVCMLLASKLRETTPLTIEKLCIYTDHAVSSRQLRDWEVLVLGKLKWDLAAVIAHDFLAFILHRLSLPRDRQALVKKHAQTFLALCATDYTFAMYPPSMIATGSIGAAVQGLGACSMSGDELTELLAGITGTEVDCLRACQEQIEAALRESLREASQTSSSPAPKAPRGSSSQGPSQTSTPTDVTAIHL [P134S]

Variants of: B2
Settings: with hxa1_human HOXA1, P49639
Chain of hxa1_human HOXA1, P49639 (P49639 whole entry): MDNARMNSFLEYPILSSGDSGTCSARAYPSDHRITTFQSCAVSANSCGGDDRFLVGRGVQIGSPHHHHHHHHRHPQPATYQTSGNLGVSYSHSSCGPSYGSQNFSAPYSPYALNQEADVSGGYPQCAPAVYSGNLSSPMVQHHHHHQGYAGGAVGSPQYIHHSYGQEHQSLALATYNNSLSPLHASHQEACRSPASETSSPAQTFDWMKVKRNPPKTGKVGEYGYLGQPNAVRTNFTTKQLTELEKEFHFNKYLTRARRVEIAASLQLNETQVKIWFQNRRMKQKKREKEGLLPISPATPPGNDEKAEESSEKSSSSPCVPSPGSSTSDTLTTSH

effect of a mutation on the interaction	Variant
with no effect	MWTLVSWVALTAGLVAGTRCPDGQFCPVACCLDPGGASYSCCRPLLDKWPTTLSRHLGGPCQVDAHCSAGHSCIFTVSGTSSCCPFPEAVACGDGHHCCPRGFHCSADGRSCFQRSGNNSVGAIQCPDSQFECPDFSTCCVMVDGSWGCCPMPQASCCEDRVHCCPHGAFCDLVHTRCITPTGTHPLAKKLPAQRTNRAVALSSSVMCPDARSRCPDGSTCCELPSGKYGCCPMPNATCCSDHLHCCPQDTVCDLIQSKCLSKENATTDLLTKLPAHTVGDVKCDMEVSCPDGYTCCRLQSGAWGCCPFTQAVCCEDHIHCCPAGFTCDTQKGTCEQGPHQVPWMEKAPAHLSLPDPQALKRDVPCDNVSSCPSSDTCCQLTSGEWGCCPIPEAVCCSDHQHCCPQGYTCVAEGQCQRGSEIVAGLEKMPARRASLSHPRDIGCDQHTSCPVGQTCCPSLGGSWACCQLPHAVCCEDRQHCCPAGYTCNVKARSCEKEVVSAQPATFLARSPHVGVKDVECGEGHFCHDNQTCCRENRQGWACCPYRQGVCCADRRHCCPAGFRCAARGTKCLRREAPRWDAPLRDPALRQLL [D536E]
with no effect	MWTLVSWVALTAGLVAGTRCPDGQFCPVACCLDPGGASYSCCRPLLDKWPTTLSRHLGGPCQVDAHCSAGHSCIFTVSGTSSCCPFPEAVACGDGHHCCPRGFHCSADGRSCFQRSGNNSVGAIQCPDSQFECPDFSTCCVMVDGSWGCCPMPQASCCEDRVHCCPHGAFCDLVHTRCITPTGTHPLAKKLPAQRTNRAVALSSSVMCPDARSRCPDGSTCCELPSGKYGCCPMPNATCCSDHLHCCPQDTVCDLIQSKCLSKENATTDLLTKLPAHTVGDVKCDMEVSCPDGYTCCRLQSGAWGCCPFTQAVCCEDHIHCCPAGFTCDTQKGTCEQGPHQVPWMEKAPAHLSLPDPQALKRDVPCDNVSSCPSSDTCCQLTSGEWGCCPIPEAVCCSDHQHCCPQGYTCVAEGQCQRGSEIVAGLEKMPARWASLSHPRDIGCDQHTSCPVGQTCCPSLGGSWACCQLPHAVCCEDRQHCCPAGYTCNVKARSCEKEVVSAQPATFLARSPHVGVKDVECGEGHFCHDNQTCCRDNRQGWACCPYRQGVCCADRRHCCPAGFRCAARGTKCLRREAPRWDAPLRDPALRQLL [R433W]

Variants of: B2
Settings: with glrx3_human GLRX3, O76003
Chain of glrx3_human GLRX3, O76003 (O76003 whole entry): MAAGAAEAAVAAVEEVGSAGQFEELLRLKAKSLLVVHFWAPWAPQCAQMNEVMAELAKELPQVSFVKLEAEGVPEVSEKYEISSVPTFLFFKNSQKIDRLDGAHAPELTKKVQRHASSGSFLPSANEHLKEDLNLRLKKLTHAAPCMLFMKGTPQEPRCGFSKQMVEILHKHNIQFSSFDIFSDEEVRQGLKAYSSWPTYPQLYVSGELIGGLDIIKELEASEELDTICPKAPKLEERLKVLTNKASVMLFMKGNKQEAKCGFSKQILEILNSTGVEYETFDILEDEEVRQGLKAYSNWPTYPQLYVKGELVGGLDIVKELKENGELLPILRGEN

effect of a mutation on the interaction	Variant
with no effect	MWTLVSWVALTAGLVAGTRCPDGQFCPVACCLDPGGASYSCCRPLLDKWPTTLSRHLGGPCQVDAHCSAGHSCIFTVSGTSSCCPFPEAVACGDGHHCCPRGFHCSADGRSCFQRSGNNSVGAIQCPDSQFECPDFSTCCVMVDGSWGCCPMPQASCCEDRVHCCPHGAFCDLVHTRCITPTGTHPLAKKLPAQRTNRAVALSSSVMCPDARSRCPDGSTCCELPSGKYGCCPMPNATCCSDHLHCCPQDTVCDLIQSKCLSKENATTDLLTKLPAHTVGDVKCDMEVSCPDGYTCCRLQSGAWGCCPFTQAVCCEDHIHCCPAGFTCDTQKGTCEQGPHQVPWMEKAPAHLSLPDPQALKRDVPCDNVSSCPSSDTCCQLTSGEWGCCPIPEAVCCSDHQHCCPQGYTCVAEGQCQRGSEIVAGLEKMPARRASLSHPRDIGCDQHTSCPVGQTCCPSLGGSWACCQLPHAVCCEDRQHCCPAGYTCNVKARSCEKEVVSAQPATFLARSPHVGVKDVECGEGHFCHDNQTCCRENRQGWACCPYRQGVCCADRRHCCPAGFRCAARGTKCLRREAPRWDAPLRDPALRQLL [D536E]
with no effect	MWTLVSWVALTAGLVAGTRCPDGQFCPVACCLDPGGASYSCCRPLLDKWPTTLSRHLGGPCQVDAHCSAGHSCIFTVSGTSSCCPFPEAVACGDGHHCCPRGFHCSADGRSCFQRSGNNSVGAIQCPDSQFECPDFSTCCVMVDGSWGCCPMPQASCCEDRVHCCPHGAFCDLVHTRCITPTGTHPLAKKLPAQRTNRAVALSSSVMCPDARSRCPDGSTCCELPSGKYGCCPMPNATCCSDHLHCCPQDTVCDLIQSKCLSKENATTDLLTKLPAHTVGDVKCDMEVSCPDGYTCCRLQSGAWGCCPFTQAVCCEDHIHCCPAGFTCDTQKGTCEQGPHQVPWMEKAPAHLSLPDPQALKRDVPCDNVSSCPSSDTCCQLTSGEWGCCPIPEAVCCSDHQHCCPQGYTCVAEGQCQRGSEIVAGLEKMPARWASLSHPRDIGCDQHTSCPVGQTCCPSLGGSWACCQLPHAVCCEDRQHCCPAGYTCNVKARSCEKEVVSAQPATFLARSPHVGVKDVECGEGHFCHDNQTCCRDNRQGWACCPYRQGVCCADRRHCCPAGFRCAARGTKCLRREAPRWDAPLRDPALRQLL [R433W]
